The assay deals with T1, NiV-F wild type expressed on 293T cells (Nipah virus, UniProt Q9IH63).
T1 construct: source: HEK293T, transiently transfected, on cells
Briefly: flow cytometry on cells. The conditions noted are these: one partner purified. Background: Flow cytometry measures light scatter and fluorescence of single cells or particles in a stream.

One molecule from article doi:10.1101/2022.09.26.507980 (bioRxiv, 2022) can be followed below.

B1: mAb92 (antibody, V domains shown)
VH: QSLEESGGRLVTPGTPLTLTCTASGFSLSSYYMMWVRQAPGKGLEWIGIINTGGNAYYASWTKGRFTISKTSTTVDLKITSPTTEDTATYFCARAVPSGAGYSAGGLWGPGTLVTVSS
VL: DQVLTQTPASVEAAVGGTVTIKCQASQSVGFYLSWYQQKPGQPPKLLIYRASTLESGVPSRFKGSGSGTEFTLTISDLECADAATYYCQTNDYLASSAFGGGTEVVVR
notes: also called monoclonal antibody 92
As for B1, the binding result is “binds”.
